According to patent US20070280945A1 (Regeneron, published 2007):
Where a chain is given by its changes, count along the chain named.

T1: hIL-6R-hFc (human, UniProt P08887 20-358)
T1 construct: also called dimeric hIL-6R; Dimer; not shown: human Fc (hFc)
T1 sequence: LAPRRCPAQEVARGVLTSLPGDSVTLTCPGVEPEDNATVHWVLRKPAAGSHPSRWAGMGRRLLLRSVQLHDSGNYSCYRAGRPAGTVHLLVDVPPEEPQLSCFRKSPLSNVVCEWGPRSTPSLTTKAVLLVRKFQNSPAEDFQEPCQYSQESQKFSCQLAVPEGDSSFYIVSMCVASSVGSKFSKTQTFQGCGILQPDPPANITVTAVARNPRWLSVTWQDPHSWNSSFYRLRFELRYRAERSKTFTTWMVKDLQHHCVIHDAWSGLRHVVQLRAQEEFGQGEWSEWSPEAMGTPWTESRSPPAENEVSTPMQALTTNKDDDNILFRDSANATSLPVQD

T2: hIL-6R recombinant protein (plate-coated, Example 5) (human, UniProt P08887 20-358, limits assumed)
T2 construct: also called antigen
T2 sequence: T1 sequence

T3: recombinant hIL-6R protein, monomeric form (human, UniProt P08887 20-358)
T3 construct: also called monomeric hIL-6R; Human IL6R
T3 sequence: T1 sequence

T4: hIL-6R on hIL-6-responsive human cells (XG-1 myeloma line, HepG2 hepatoma line) (human, UniProt P08887 20-468)
T4 sequence (looked up): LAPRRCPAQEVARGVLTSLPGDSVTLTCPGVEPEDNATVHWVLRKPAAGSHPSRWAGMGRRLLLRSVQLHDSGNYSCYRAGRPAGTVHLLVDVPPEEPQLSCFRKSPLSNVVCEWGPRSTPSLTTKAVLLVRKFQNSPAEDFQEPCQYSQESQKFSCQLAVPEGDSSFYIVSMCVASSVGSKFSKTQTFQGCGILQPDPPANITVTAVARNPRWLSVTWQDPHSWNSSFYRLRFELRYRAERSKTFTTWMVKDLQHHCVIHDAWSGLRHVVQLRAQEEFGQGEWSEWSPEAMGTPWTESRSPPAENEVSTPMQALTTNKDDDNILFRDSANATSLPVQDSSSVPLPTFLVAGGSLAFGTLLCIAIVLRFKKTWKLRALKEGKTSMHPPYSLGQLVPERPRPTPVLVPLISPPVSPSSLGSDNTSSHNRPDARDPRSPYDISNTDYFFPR

B1: VV7G4-10 (antibody, V domains shown)
VH: QVQLVQSGAEVKKPGASVKVSCKASGYTFTSYGISWVRQAPGQGLEWMGWISAYNDDTNYAQKFQGRVTMTTDTSTSTAYMELRSLRSDDTAVYYCAREAQLVLYYYYGMDVWGQGTTVTVSS
VL: EIVLTQSPATLSLSPGERATLSCRASQSVSSFLAWNQQKPGQAPRLLIYDASNRATGIPARFSGSGSGTDFTLTISSLEPEDFAVYYCQQRSNWPYIFGQGTKLEIK
notes: Human variable regions with mouse constant region
B2: VV9A6-11 (antibody, V domains shown)
VH: B1 VH
VL: B1 VL
notes: as for B1
B3: VV6F12-11 (antibody, V domains shown)
VH: QVQLVQSGAEVKEPGASVKISCKASGYTFTSYDIIWVRQATGQGLEWMGWMNPNSGDRGYTQNLQGRVTLTRDTSISTVYMELSSLRSEDTAVYYCARDYSNHYYGLDVWGQGTTVTVSS
VL: DIQLTQSPSFLSASVGDRVTITCWASQDISNYLAWYQQKPGKAPKLLIFVASTLQSGVPSRFSGSGSGTEFTLTISSLQPEDFATYYCQQFNSYPLTFGGGTKVEIR
notes: as for B1
B4: VV3D8-4 (antibody, V domains shown)
VH: EVQLVESGGGLVQPGRSLRLSCAASGFTFDDYALHWVRQAPGKGLEWVSGISWNSGRIGYADSVKGRFTISRDNAKNSLFLQMNSLRAEDTALYYCAKGRDAFDIWGQGTLVTVSS
VL: DIQMTQSPSSVSASVGDRVTITCRASQGISSWLAWYQQKPGKAPKLLIYAASSLQSGVPSRFSGSGSGTDFTLTISSLQPEDFATYYCQQANSFPYTFGQGTKLEIK
notes: as for B1
B5: VV6C10-1 (antibody, V domains shown)
VH: B4 VH with I51V, S55G, A88V
VL: EIVLTQSPATLSLSPGERATLSCRASQSVSSYLAWYQQKPGQAPRLLIYDASNRATGIPARFSGSGSGTDFTLTISSLEPEDFAFYYCQQRNNRPPFTFGPGTKVDVR
notes: as for B1
B6: VV6C10-3 (antibody, V domains shown)
VH: QVQLVQSGAEVKKPGASVKVSCKASGFNFFHYGITWVRQAPGQGLEWMGWISTYNGDTIYAQKVQGRVTMTTDTATSTAYMELRSLRSDDTAVYYCARSEQQVDYYFYGMDVWGQGTTVTVSS
VL: B5 VL
notes: as for B1
B7: VQ1G4-21 hIgG1 (antibody, V domains shown)
VH: B3 VH with I20V, D57N, R58T, D73N, S77T, R87S, N102S
VL: B3 VL with A13T, V15I, R107K
notes: Human IgG1 constant region
B8: VQ1G4-21 hIgG4 (antibody, V domains shown)
VH: B3 VH with I20V, D57N, R58T, D73N, S77T, R87S, N102S
VL: B3 VL with A13T, V15I, R107K
notes: Human IgG4 constant region
B9: VQ8F11-21 hIgG1 (antibody, V domains shown)
VH: B4 VH with G26R, L34M, K76E, S85G, A102S, L111M
VL: B4 VL with A50G, Q55E, T85S
B10: VV6A9-5 hIgG1 (antibody, V domains shown)
VH: B4 VH with I51V, S55G, A88V
VL: B4 VL with Q90H, N92Y
notes: Human IgG1 constant region
B11: VQ8F11-21 hIgG4 (antibody, V domains shown)
VH: B4 VH with G26R, L34M, K76E, S85G, A102S, L111M
VL: B4 VL with A50G, Q55E, T85S
notes: Human IgG4 (wild-type) constant region
B12: VV6A9-5 hIgG4 (antibody, V domains shown)
VH: B4 VH with I51V, S55G, A88V
VL: B4 VL with Q90H, N92Y
notes: Human IgG4 constant region
B13: VQ8A9-6 hIgG1 (antibody, V domains shown)
VH: EVQLVESGGNLVQPGRSLRLSCAASGFIFDDYAMHWVRQAPGKGLEWVSGISWNSGSIGYADSVKGRFTISRDNAKNSLYLQMNSLRAEDTALYYCAKDGGSSWLPFVYYYGMDVWGQGTTVTVSS
VL: EIVMTQSPATLSVSPGERATLSCRASQSISSNFAWYQQKPGQAPRLLIYGASTRATGIPARFSGSGSGTDFTLTISSLQSEDFAVYYCQQYSSWPPYTFGQGTKLEIK
notes: Human IgG1 constant region
B14: VQ8A9-6 hIgG4 (antibody, V domains shown)
VH: B13 VH
VL: B13 VL
notes: Human IgG4 constant region

Target: T1, hIL-6R-hFc
Experiment: competition ELISA: antibody premixed with serial dilutions of hIL-6R-hFc, free antibody detected on hIL-6R-hFc-coated plate

Q: B1 was tested. Which IC50 did it give?
A: The IC50 was 1.98 nM.

Q: For B2, which IC50 is on record?
A: Its IC50 is 0.347 nM.

Q: How did the IC50 turn out when B3 was run?
A: Its IC50 is 0.033 nM.

Q: For B4, which IC50 is on record?
A: The IC50 was 0.013 nM.

Q: B5 was tested. Which IC50 did it give?
A: The IC50 was 0.01 nM.

Q: With B6 as the binder, how does the IC50 read?
A: Its IC50 is 0.009 nM.

Target: T2, hIL-6R recombinant protein …
Experiment: SPR (BIAcore) competition on hIL-6R; competitor: control antibody

Q: How did the “% reduction of binding by control antibody” value (“% reduction of binding” for short) turn out when B4 was run?
A: Its value is 97%.

Q: Which “% reduction of binding” value does the source give for B5 here?
A: Its value is 90%.

Target: T3, recombinant hIL-6R protein, monomeric …
Experiment: SPR (BIAcore), antibody captured on goat anti-human Fc, monomeric hIL-6R 1.56-12.5 nM

Q: Which results are given for B7?
A: Kd: 0.237 nM; koff: 7.92e-05 s⁻¹; kon: 334000 M⁻¹ s⁻¹

Q: What does the source list for B8?
A: Kd: 0.336 nM; koff: 9.18e-05 s⁻¹; kon: 273000 M⁻¹ s⁻¹

Q: What does the source list for B9?
A: Kd: 0.073 nM; koff: 4.54e-05 s⁻¹; kon: 622000 M⁻¹ s⁻¹

Q: How did the Kd turn out when B10 was run?
A: The Kd was 0.125 nM.

Q: And the koff?
A: Its koff is 8.87e-05 s⁻¹.

Q: And the kon?
A: The kon was 712000 M⁻¹ s⁻¹.

Q: Which results are given for B11?
A: Kd: 0.073 nM; koff: 5.22e-05 s⁻¹; kon: 717000 M⁻¹ s⁻¹

Q: With B12 as the binder, how does the Kd read?
A: The Kd was 0.135 nM.

Q: What about the koff of the same binder?
A: Its koff is 7.64e-05 s⁻¹.

Q: What about the kon of the same binder?
A: The kon was 567000 M⁻¹ s⁻¹.

Q: How did the Kd turn out when B13 was run?
A: Its Kd is 0.238 nM.

Q: And the koff?
A: Its koff is 0.00026 s⁻¹.

Q: And the kon?
A: Its kon is 1.09e+06 M⁻¹ s⁻¹.

Q: What does the source list for B14?
A: Kd: 0.201 nM; koff: 0.000235 s⁻¹; kon: 1.17e+06 M⁻¹ s⁻¹

Target: T4, hIL-6R on hIL-6-responsive human cells …
Experiment: cell-based or functional assay

Q: For B7, which “HepG2/STAT3 luciferase assay IC50” value is on record?
A: The value was 0.767 nM.

Q: B8 was tested. Which “HepG2/STAT3 luciferase assay IC50” value did it give?
A: The value was 0.528 nM.

Q: How did the “HepG2/STAT3 luciferase assay IC50” value turn out when B9 was run?
A: Its value is 0.15 nM.

Q: Which “HepG2/STAT3 luciferase assay IC50” value does the source give for B10 here?
A: Its value is 0.204 nM.

Q: Which “HepG2/STAT3 luciferase assay IC50” value does the source give for B11 here?
A: Its value is 0.228 nM.

Q: Which “HepG2/STAT3 luciferase assay IC50” value does the source give for B12 here?
A: Its value is 0.343 nM.

Q: Which “HepG2/STAT3 luciferase assay IC50” value does the source give for B13 here?
A: Its value is 0.13 nM.

Q: For B14, which “HepG2/STAT3 luciferase assay IC50” value is on record?
A: The value was 0.185 nM.

Target: T2, hIL-6R recombinant protein …
Experiment: competition ELISA on hIL-6R-coated plate presaturated with competitor control antibody; test antibody 50 ng/ml

Q: B1 was tested. Which “% reduction of binding” value did it give?
A: The value was 26%.

Q: B2 was tested. Which “% reduction of binding” value did it give?
A: Its value is 18%.

Q: With B3 as the binder, how does the “% reduction of binding” value read?
A: Its value is 3%.

Q: For B4, which “% reduction of binding” value is on record?
A: The value was 84%.

Q: With B5 as the binder, how does the “% reduction of binding” value read?
A: The value was 80%.

Q: For B6, which “% reduction of binding” value is on record?
A: The value was 1%.

Target: T3, recombinant hIL-6R protein, monomeric …
Experiment: Kinexa solution-phase competition immunoassay, monomeric hIL-6R

Q: For B4, which Kd is on record?
A: The Kd was 1.91 nM.

Q: Which Kd does the source give for B5 here?
A: The Kd was 2.05 nM.

Target: T1, hIL-6R-hFc
Experiment: blocking ELISA: 100 pM hIL-6R-hFc premixed with varied antibody, free hIL-6R-hFc captured on hIL-6-coated plate

Q: Which IC50 does the source give for B1 here?
A: Its IC50 is 13 nM.

Q: Which IC50 does the source give for B2 here?
A: Its IC50 is 0.5 nM.

Q: For B3, which IC50 is on record?
A: Its IC50 is 2.2 nM.

Q: With B4 as the binder, how does the IC50 read?
A: Its IC50 is 0.61 nM.

Q: For B5, which IC50 is on record?
A: The IC50 was 4.6 nM.

Q: Which IC50 does the source give for B6 here?
A: The IC50 was 0.06 nM.

Target: T4, hIL-6R on hIL-6-responsive human cells …
Experiment: cell-based or functional assay
Remark: another data set of the same source

Q: B4 was tested. Which “XG-1 cell proliferation Inhibition IC50” value did it give?
A: The value was > 100 nM.

Q: How did the “XG-1 cell proliferation Inhibition IC50” value turn out when B5 was run?
A: Its value is > 6.9 nM.

Target: T3, recombinant hIL-6R protein, monomeric …
Experiment: SPR (BIAcore), antibody captured on anti-mouse IgG surface, monomeric hIL-6R

Q: For B4, which Kd is on record?
A: The Kd was 2.41 nM.

Q: With B5 as the binder, how does the Kd read?
A: The Kd was 0.267 nM.

Target: T1, hIL-6R-hFc
Experiment: SPR (BIAcore): hIL-6R-hFc captured, antibody injected, then 50 nM hIL-6; percent reduction in hIL-6 binding

Q: B4 was tested. Which “hIL6/hIL6R Binding Inhibition (%)” value did it give?
A: Its value is 93%.

Q: How did the “hIL6/hIL6R Binding Inhibition (%)” value turn out when B5 was run?
A: Its value is 61%.

Target: T1, hIL-6R-hFc
Experiment: SPR (BIAcore), antibody captured on anti-mouse IgG surface, dimeric hIL-6R

Q: For B4, which Kd is on record?
A: The Kd was 0.172 nM.

Q: How did the Kd turn out when B5 was run?
A: Its Kd is 0.032 nM.
